What was measured:
[1] = target: purified biotin-tagged human CD36 (human, UniProt P16671 30-439, limits assumed, biotin tag, site not stated); assay: AlphaScreen competition; competitor 1G04 on acceptor beads;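 note: streptavidin donor beads excited at 680 nm release singlet oxygen, and the light signal needs a nearby acceptor bead, with 30 min donor-bead incubation at 25 °C in the dark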
[2] = target: T1, human CD36 (on HEK 293 or SCC25 cells) (human, UniProt P16671 2-472); assay: FACS, HEK 293 cells transiently overexpressing CD36;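 note: antibody binding to transfected cells detected by flow cytometry with a fluorescent anti-human secondary antibody, EC50 from a four-parameter sigmoidal fit of mean fluorescence intensity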
T1 construct: Overexpressed transiently or stably on HEK 293 cells, or stably on SCC25 cells; also called huCD36
T1 sequence (P16671 2-472 limits assumed): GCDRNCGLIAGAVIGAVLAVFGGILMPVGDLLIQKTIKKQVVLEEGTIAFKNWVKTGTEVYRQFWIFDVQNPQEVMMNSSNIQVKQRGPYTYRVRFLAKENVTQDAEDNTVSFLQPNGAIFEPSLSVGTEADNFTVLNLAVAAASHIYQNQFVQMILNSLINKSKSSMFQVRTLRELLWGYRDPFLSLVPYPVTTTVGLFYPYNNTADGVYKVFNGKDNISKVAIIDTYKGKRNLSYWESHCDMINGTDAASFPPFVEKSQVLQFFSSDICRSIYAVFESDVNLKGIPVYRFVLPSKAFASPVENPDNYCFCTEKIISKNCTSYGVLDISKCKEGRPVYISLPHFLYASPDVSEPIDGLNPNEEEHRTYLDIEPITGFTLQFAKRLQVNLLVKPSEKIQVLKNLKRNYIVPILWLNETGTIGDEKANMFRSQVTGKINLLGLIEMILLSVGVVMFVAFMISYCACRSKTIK

[3] = target: T2, mouse CD36 (on HEK 293 cells) (mouse, UniProt Q08857 1-472); assay: as above
T2 construct: also called Murine CD36
T2 sequence (Q08857 whole entry): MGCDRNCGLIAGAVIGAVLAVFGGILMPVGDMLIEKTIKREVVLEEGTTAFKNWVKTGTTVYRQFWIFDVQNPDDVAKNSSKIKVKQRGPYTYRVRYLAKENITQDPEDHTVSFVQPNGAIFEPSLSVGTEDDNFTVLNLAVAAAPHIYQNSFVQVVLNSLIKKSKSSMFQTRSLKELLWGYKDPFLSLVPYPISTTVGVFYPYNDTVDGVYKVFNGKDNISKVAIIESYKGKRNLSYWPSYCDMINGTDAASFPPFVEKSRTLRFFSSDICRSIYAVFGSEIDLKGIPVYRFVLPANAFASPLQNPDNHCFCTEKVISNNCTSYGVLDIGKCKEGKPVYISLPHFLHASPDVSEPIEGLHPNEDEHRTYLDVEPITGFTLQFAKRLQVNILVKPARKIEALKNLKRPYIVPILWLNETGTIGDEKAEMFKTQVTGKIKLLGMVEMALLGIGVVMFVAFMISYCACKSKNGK

[4] = target: T3, nonhuman primate CD36 (on HEK 293 cells) (cynomolgus monkey / rhesus macaque, UniProt P16671 2-472 (human entry)); assay: as above
T3 construct: also called non-human primate CD36 (cynomolgus)
T3 sequence (P16671 other isoform, or with tags, fused parts or gaps limits assumed): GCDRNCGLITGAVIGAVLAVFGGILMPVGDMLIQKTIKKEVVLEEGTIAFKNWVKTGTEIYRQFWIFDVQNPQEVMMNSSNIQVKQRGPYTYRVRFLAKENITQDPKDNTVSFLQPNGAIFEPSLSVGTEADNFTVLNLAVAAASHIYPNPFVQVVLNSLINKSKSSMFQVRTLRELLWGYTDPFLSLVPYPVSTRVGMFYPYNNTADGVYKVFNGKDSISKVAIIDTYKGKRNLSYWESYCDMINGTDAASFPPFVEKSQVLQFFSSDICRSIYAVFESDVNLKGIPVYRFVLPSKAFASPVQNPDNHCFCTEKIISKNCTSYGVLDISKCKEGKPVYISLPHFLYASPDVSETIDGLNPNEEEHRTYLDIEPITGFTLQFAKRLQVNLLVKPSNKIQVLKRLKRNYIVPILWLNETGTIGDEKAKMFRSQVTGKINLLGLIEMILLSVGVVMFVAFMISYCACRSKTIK

[5] = target: T1, human CD36 (on HEK 293 or SCC25 cells); assay: cell-based or functional assay
[6] = target: T1, human CD36 (on HEK 293 or SCC25 cells); assay: FACS, SCC25 cells stably overexpressing human CD36
Description: After transiently transfecting the HEK 293 cells with a CD36 expression construct, cells were treated with three-fold serial dilution of each candidate antibody (10 dilutions starting at 500 nM). […] After incubation with the cells, an anti-human fluorescently labelled antibody was added to the cell media, allowed to incubate further, and the unbound antibody was washed off of the cells. Subsequently, the cells were subjected to FACS analysis to determine antibody binding to the cells. The results were fitted to a sigmoidal titration curve. Using a nonlinear regression model, the EC₅₀ values for each antibody were calculated from the GeoMFI and MFI values using the log(agonist) versus response (four parameters) fitting on the data transformed according to X=Log[X] in GraphPad PRISM.

[7] = target: T1, human CD36 (on HEK 293 or SCC25 cells); assay: cell-based or functional assay; remark: listed apart in the source
human CD36 (His-tagged) = target: T4, human CD36 (His-tagged) (human, UniProt P16671 30-439); assay: SPR (Biacore T200), His-captured CD36, bivalent analyte model
T4 construct: not shown: His tag
T4 sequence (P16671 30-439 limits assumed): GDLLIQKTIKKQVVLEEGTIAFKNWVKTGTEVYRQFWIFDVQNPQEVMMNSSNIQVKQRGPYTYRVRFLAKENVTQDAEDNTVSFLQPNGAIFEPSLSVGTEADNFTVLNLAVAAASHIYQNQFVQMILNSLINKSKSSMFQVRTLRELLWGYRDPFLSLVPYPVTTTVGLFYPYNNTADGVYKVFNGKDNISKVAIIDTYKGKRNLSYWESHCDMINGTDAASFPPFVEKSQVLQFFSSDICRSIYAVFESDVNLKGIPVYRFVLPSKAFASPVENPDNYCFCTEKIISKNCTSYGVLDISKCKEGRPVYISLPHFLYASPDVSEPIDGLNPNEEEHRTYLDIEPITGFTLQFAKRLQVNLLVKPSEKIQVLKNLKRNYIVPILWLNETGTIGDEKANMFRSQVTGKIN

[8] = target: T1, human CD36 (on HEK 293 or SCC25 cells); assay: cell-based or functional assay; remark: listed apart in the source
Throughout, for Percent Fatty Acid Uptake Inhibition: test concentration or dose not given here.

purified biotin-tagged human CD36, sequence (P16671 30-439 limits assumed): as above

Binder	EC50 [1] [nM]	EC50 [2] [nM]	EC50 [3] [nM]	EC50 [4] [nM]	IC50 of fatty acid uptake inhibition (BODIPY FL C16, HEK hCD36 cells) [5] [nM]	EC50 [6] [nM]	IC50 of oxLDL uptake inhibition (DiI-oxLDL, SCC25 cells) [7] [nM]	Kd (human CD36 (His-tagged)) [nM]	koff (human CD36 (His-tagged)) [s⁻¹]	kon (human CD36 (His-tagged)) [M⁻¹ s⁻¹]	Percent Fatty Acid Uptake Inhibition [8] [%]
32G04 (antibody, human IgG1, V domains shown, Chimeric: mouse variable regions on human IgG1 LALA (L234A/L235A); also called 032G04) VH: EEKLEESGGGLVQPGGSMKLSCVASGFTFSNYWMNWVRQSPEKGLEWVAEIRLKSNNYATHYAESVKGRFTISRDDSKSSVYLQMNNLRAEDTGIYYCTPLLLRWGQGTTLTVSS VL: ENVLTQSPAIMSASPGEKVTMTCRASSSLSSTYLHWYQQKSGASPKLWIYSTSNLASGVPARFSGSGSGTSYSLTISSVEAEDAATYYCQQYSGYPLTFGSGTKLEIK	1.46	0.94	5.14	6.52	42	1.88	–	–	–	–	–
21G04 (antibody, human IgG1, V domains shown, Chimeric: mouse variable regions on human IgG1 LALA (L234A/L235A)) VH: QVQLQQSGAELVKPGASVKLSCKASGYTFTSYWMHWVKQRPGQGLEWIGEIDPSDSHTNYNQKFKGKATLTVDKSSSTAYMQLSSLTSEDSAVYYCAPIYYGLDNWGQGTTLTVSS VL: ETTVTQSQKFMSTSVGDRVSVTCKASQNVGTNVAWYQQKPGQSPKALIYSASYRYSGVPDRFTGSGSGTDFTLTISNVQSEDLAEYFCQQYNSYPFTFGSGTKLEIK	0.45	0.36	–	6.38	–	–	–	–	–	–	–
18G04 (antibody, human IgG1, V domains shown, Chimeric: mouse variable regions on human IgG1 LALA (L234A/L235A); also called 018G04) VH: EVQLQQSGPELVKPGASVKISCETSGHTFTEYTMHWVKQSHGKSLEWIGGIYPNNGATKYNQKFKGKATLTVDKSSSTAYMELRSLTSEDSAVYYCARDRYDVWFAYWGQGTLVTVSA VL: ETTVTQSPASLSMAIGEKVTIRCITSTDIDDDMNWYQQKPGEPPKLLISEGNTLRPGVPSRFSSSGYGTDFVFTIENLLSEDVADYYCLQSDNLPLTFGGGTKLEIK	15.6	–	14.7	6.6	2.6	–	–	–	–	–	–
9G04 (antibody, human IgG1, V domains shown, Chimeric: mouse variable regions on human IgG1 LALA (L234A/L235A); also called 09G04; 009G04) VH: QVQLQQSGAELVRPGASVTLSCKASGYTFTDYEMHWVKQTPVHGLEWIGTVDPETGGTAFNQKFKDKASLTADKSSSTVYMELRSLTSEDSAVYYCSRGYGNYGAWFAYWGQGTLVTVSA VL: ETTVTQSPASLSVATGEKVTIRCITSTDIDDDMNWYQQKPGEPPKLLISEGNTLRPGVPSRFSSSGYGTDFVFTIENMLSEDVADYYCLQSDNLPFTFGSGTKLEIK	2.06	0.5	12	13.9	170	0.41	–	–	–	–	41.1
28G04 (antibody, human IgG1, V domains shown, Chimeric: mouse variable regions on human IgG1 LALA (L234A/L235A); also called 028G04) VH: EVQLQQSGPELVKPGASVKISCKTSGYTFTEYTIHWVKQSHGKSLEWIGGIIPNNGGSSHKQNFKDKATLTVDKSSSTAYMELRSLTSEDSAVYYCARAGDYAFDYWGQGTTLTVSS VL: ETTVTQSPASLSMAIGEKVTIRCITSTDIDDDMNWYQQKPGEPPKLLISEGNTLRPGVPSRFSSSGYGTDFVFTIENMLSEDVADYYCLQSGTLPFTFGSGTKLEIK	4.69	0.6	8.5	7.77	0.09	0.95	1.67	14	0.013	870000	39.7
7G04 (antibody, human IgG1, V domains shown, Chimeric: mouse variable regions on human IgG1 LALA (L234A/L235A); also called 07G04; 007G04) VH: QVQMKESGAELVRPGASVKLSCKALGYTFTDYEIQWVKQTPVHGLEWIGGIHPGSSGIVYNQKFKGKATLTADKSSSTAYMELSSLTSEDSAVYYCTRGGGYDGAWFAYWGQGSLVTVSA VL: ETTVTQSPASLSMAIGEKVTIRCITSTDIDDDMNWYQQKPGEPPKLLISEGNTLRPGVPSRFSSSGYGTDFVFTIENMLSEDVADYYCLQSDNLPFTFGSGTKLEIK	0.95	0.48	3.73	4.16	1	0.68	0.27	4.9	0.0035	710000	37.4

These reach a lower EC50 [4]. Values come first.

EC50 [1] [nM]	EC50 [2] [nM]	EC50 [3] [nM]	EC50 [4] [nM]	IC50 of fatty acid uptake inhibition (BODIPY FL C16, HEK hCD36 cells) [5] [nM]	EC50 [6] [nM]	IC50 of oxLDL uptake inhibition (DiI-oxLDL, SCC25 cells) [7] [nM]	Kd (human CD36 (His-tagged)) [nM]	koff (human CD36 (His-tagged)) [s⁻¹]	kon (human CD36 (His-tagged)) [M⁻¹ s⁻¹]	Percent Fatty Acid Uptake Inhibition [8] [%]	Binder
0.53	1.25	–	1.68	–	–	–	–	–	–	–	22G04 (antibody, human IgG1, V domains shown, Chimeric: mouse variable regions on human IgG1 LALA (L234A/L235A)) VH: QVQLQQPGAELVKPGASVKLSCKASGYTFTSYWMHWVKQRPGQGLEWIGEIDPSDSHANYNQKFKGKATLTVDKSSSTAYMQLSSLTSEDSAVYYCAPIHYGLDNWGQGTTLTVSS VL: DIVLTQSQKFMSTSVGDRVSVTCKASQNVGTNVAWYQQKPGQSPKALIYSASYRYSGVPDRFTGSGSGTDFTLTISNVQSEDLAEYFCQQYNSYPLTFGAGTKLELK
0.29	0.74	–	2.19	–	–	–	–	–	–	–	25G04 (antibody, human IgG1, V domains shown, Chimeric: mouse variable regions on human IgG1 LALA (L234A/L235A)) VH: EVQLQQSGAELVKPGASVKLSCKASGYTFTSYWMHWVKQRPGQGLEWIGEIDPSDSHANYNQKFKGKATLTVDKSSSTAYMQLSSLTSEDSAVYYCAPIYYGLDNWGQGTTLTVSS VL: DIVLTQSQKFMSTSVGDRVSVTCKASQNVGTNVAWYQQKPGQSPKALIYSASYRYSGVPDRFTGSGSGTDFTLTISNVQPEDLAEYFCQQYNSYPLTFGGGTKLEIK
0.29	0.26	–	0.81	–	–	–	–	–	–	–	24G04 (antibody, human IgG1, V domains shown, Chimeric: mouse variable regions on human IgG1 LALA (L234A/L235A)) VH: QVQLQQSGAELVKPGASVKLSCKASGYTFTSYWMHWVKQRPGQGLEWIGEIDPSDSHANYNQKFKGKATLTVDKSSSTAYMQLSSLTSEDSAVYYCAPIYYGLDNWGQGTTLTVSS VL: DIVMTQSQKFLSTSVGDRVSVTCKASQNVGTNVAWYQQKPGQSPKVLIYSASYRYSGVPDRFTGSGSGTDFTLTVSNVQSEDLAEYFCQQYNNYPLTFGAGTKLELK
0.28	0.3	–	1.69	1	–	–	–	–	–	–	23G04 (antibody, human IgG1, V domains shown, Chimeric: mouse variable regions on human IgG1 LALA (L234A/L235A); also called 023G04) VH: QVQLQQPGTELVKPGASVKLSCKASGYTFTSYWMHWVKQRPGQGLEWIGEIDPSDSHTNYNQKFKGKATLTVDKSSSTAYMQLSSLTSEDSAVYYCAPIYYGLDNWGQGTTLTVSS VL: DIVLTQSQKFMSTSVGDRVSVTCKASQNVGTNVAWYQQKPGQSPKALIYSASYRYSGVPDRFTGSGSGTDFTLTISNVQSEDLAEYFCQQYNSYPYTFGGGTKLEIK
0.31	1.47	1.57	0.88	0.13	0.41	0.35	2.3	0.0072	3.1e+06	45.1	14G04 (antibody, human IgG1, V domains shown, Chimeric: mouse variable regions on human IgG1 LALA (L234A/L235A); also called 014G04) VH: QVQLQQSGAELVRSGASVRLSCTASGFNIKDYYIHWVKQRPEQGLEWIGWIDPENGDTEYAPRFQDKATMTADTSSNTAYLQLSSLTSEDTAVYYCNGWLLSGNGMDYWGQGTSVTVSS VL: DIVMTQSHKFMSTSVGDRVSITCKASQDVGTAVAWYQQKPGQSPKLLIYWASTRHTGVPDRFTGSGSGTDFTLTISNVQSEDLADYFCQQYSSYPTFGGGTKLEIK
–	0.77	16	1.48	33	3.3	–	–	–	–	–	10G04 (antibody, human IgG1, V domains shown, Chimeric: mouse variable regions on human IgG1 LALA (L234A/L235A); also called 010G04) VH: DVQLQESGPELVKPGASVKISCKASGYTFTDYNMHWVKQSHGKSLEWIGYIYPYNGGTGYNQKFKSKATLTVDNSSSTAYMELRSLTSEDSAVYYCARDGGYDVYFDYWGQGTTLTVSS VL: DVVMTQTPLSLPVSLGDQASISCRSSQSLVHSNGNTYLHWYLQKPGQSPKLLIYKVSNRFSGVPDRFSGSGSGTDFTLKISRVEAEDLGVYYCFQGSHVPWTFGGGTKLEIK
0.78	0.31	1.2	0.67	3.9	0.39	–	–	–	–	43.8	12G04 (antibody, human IgG1, V domains shown, Chimeric: mouse variable regions on human IgG1 LALA (L234A/L235A); also called 012G04) VH: EVQLVESGGGLVQPGESLKLSCESNEYEFPSHDMSWVRKTPEKRLELVAAINSDGGYTYYPDTMERRFIISRDNTKKTLYLQMSSLRSEDTALYYCARHGYDYDEEGAWFAYWGQGTLVTVSA VL: ETTVTQSPASLSMAIGEKVTIRCITSTDIDDDMNWYQQKPGEPPKLLISEGNTLRPGVPSRFSSTGYGTDFVFSIENMLSEDVADYYCLQSDNLPFTFGSGTKLEIK
0.02	–	5.03	2.43	> 1000	–	–	–	–	–	–	5G04 (antibody, human IgG1, V domains shown, Chimeric: mouse variable regions on human IgG1 LALA (L234A/L235A); also called 05G04; 005G04) VH: QVQLQQSGAELVMPGASVKMSCKASGYTFTDYWMHWVKQRPGQGLEWIGAIDTSDSYTSYNQKFKGKATLTVDESSSTAYMQLSSLTSEDSAVYYCARDYYGSSTAWFAYWGQGTLVTVSA VL: ETTVTQSPASLSMAIGEKVTIRCITSTDIDDDMNWYQQKPGEPPKLLISEGNTLRPGVPSRFSSSGYGTDFVFTIDNMLSEDVADYYCLQSDNLPFTFGSGTKLEIK
0.52	1.25	9.31	4.03	–	–	–	–	–	–	–	17G04 (antibody, human IgG1, V domains shown, Chimeric: mouse variable regions on human IgG1 LALA (L234A/L235A)) VH: EVQLQQSGPELVKPGASVKISCKTSGYTFTEYTMHWVKQSHGKSLEWIGGIYPYNGGTAYNQKFKNKATLTVDISSNTAYMALRSLASDDSAVYYCASDYFYGDGYPWFTYWGQGTLVTVSA VL: ETTVTQSPASLSVATGEKVTIRCITSTDIDDDMNWYQQRPGEPPNLLISEGNTLRPGVPSRFSSSGYGTDFVFTIENTLSEDVADYYCLQSDNLPFTFGSGTRLEIK

— patent US20250206836A1 (ONA THERAPEUTICS S L, published 2025)
